According to US20220306762A1 (CRYSTAL BIOSCIENCE, published 2022):
Positions count from the first letter of the chain named. Blank lines part the entries; values can stand above or below the binder they belong to.

Assays:
[1] = biological target: T1, His-tagged mouse CD38 (ACRO Biosystems CD8-M5223) (mouse, UniProt P56528 45-304); assay: SPR (second run), His-tagged CD38
T1 construct: bought protein; used for ELISA coating and as SPR analyte; also called Murine; not shown: His tag
T1 sequence (looked up): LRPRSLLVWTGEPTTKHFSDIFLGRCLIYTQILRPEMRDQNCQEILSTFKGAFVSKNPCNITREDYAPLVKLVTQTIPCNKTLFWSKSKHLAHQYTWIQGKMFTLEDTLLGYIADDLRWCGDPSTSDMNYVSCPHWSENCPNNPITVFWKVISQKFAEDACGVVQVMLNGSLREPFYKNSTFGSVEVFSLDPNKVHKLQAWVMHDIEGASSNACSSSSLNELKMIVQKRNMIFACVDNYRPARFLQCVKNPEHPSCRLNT

[2] = biological target: T2, His-tagged human CD38 (ACRO Biosystems CD8-H5224) (human, UniProt P28907 43-300); assay: SPR (second run), His-tagged CD38
T2 construct: bought protein; used for ELISA coating and as SPR analyte; not shown: His tag

[3] = biological target: T3, His-tagged cynomolgus monkey CD38 (ACRO Biosystems, CD8-05223 [sic]) (cynomolgus monkey, UniProt Q5VAN0 43-301); assay: SPR (second run), His-tagged CD38
T3 construct: bought protein; used for ELISA coating and as SPR analyte; not shown: His tag

[4] = biological target: T1, His-tagged mouse CD38 (ACRO Biosystems …); assay: ELISA, 1 ug/ml scFv-Fc, coated His-tagged CD38
[5] = biological target: T2, His-tagged human CD38 (ACRO Biosystems …); assay: ELISA, 1 ug/ml scFv-Fc, coated His-tagged CD38
[6] = biological target: T3, His-tagged cynomolgus monkey CD38 (ACRO …); assay: ELISA, 1 ug/ml scFv-Fc, coated His-tagged CD38
[7] = biological target: T4, Murine CD38 on transiently transfected Expi293 cells (Origene MC208001) (murine, UniProt P56528 1-304); assay: flow cytometry, 10 ug/ml scFv-Fc, transfected Expi293 cells
T4 construct: whole, on cells
T4 sequence (looked up): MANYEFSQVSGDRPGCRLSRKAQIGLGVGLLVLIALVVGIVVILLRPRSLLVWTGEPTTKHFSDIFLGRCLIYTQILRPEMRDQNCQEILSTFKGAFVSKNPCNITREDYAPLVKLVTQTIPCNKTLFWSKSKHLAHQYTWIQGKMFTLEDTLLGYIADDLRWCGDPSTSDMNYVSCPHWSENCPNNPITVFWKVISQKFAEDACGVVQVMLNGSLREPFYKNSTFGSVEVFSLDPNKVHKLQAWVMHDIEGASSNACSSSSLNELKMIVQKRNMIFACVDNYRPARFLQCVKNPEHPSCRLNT

[8] = biological target: T5, Human CD38 on transiently transfected Expi293 cells (Origene SC321273) (human, UniProt P28907 1-300); assay: as above
T5 construct: whole, on cells

B2: 40769p2.2.A9 scFv-Fc (scFv, V domains shown)
VH: EVQLLESGGGLVQPGGSLRLSCTASGITFSRFNMFWVRQAPGKGLEFVASIRDDGSWTYYADSVKGQFTISRDNSKNTLYLQMNSLRAEDTAVYYCAKDYNSKDFIYHYVMDVWGQGTTVTVSS
VL: QSVLTQPPSASGTPGQRVTISCSGRNSNIGNNVVNWYQQLPGTAPKLLIYRNQERPSGVPDRFSGSKSGTSASLAISGLQSEDEADYYCSTWDDSLNGWVFGGGTKLTVL
notes: scFv-Fc
- ELISA signal [4]: 0.044
- ELISA signal [5]: 1.55
- ELISA signal [6]: 1.67
- FACS percent gated [7]: 1.57%
- FACS percent gated [8]: 91.2%

B4: 40596p1.F6 (scFv, V domains shown)
VH: EVQLLESGGGLVQPGGSLRLSCAASGFDFSKNAMSWVRQAPGKGLEYVAGSGWSGSFIFYADSVKGRFTVSRDNSENTLYLQMSSLRAEDTAVYYCAKNPGFGEMDVWGQGTTVTVSS
VL: EIVLTQSPGSLFLSPGERATLTCRASQTIGSNLAWYQQKFGQAPRLLIYGASTRAADIPDRFSGSGSGTEFTLTISSLQSEDFAVYYCQQYNSWPPLTFGGGTKVEIK
- Kd [1]: 27.2 nM
- Kd [2]: 80.4 nM
- Kd [3]: 281 nM

B6: 40596p1.D2 (scFv, V domains shown)
VH: B4 VH with F68S
VL: B4 VL with I2L
- Kd [1]: 45.2 nM
- Kd [2]: 54.7 nM
- Kd [3]: 172 nM

B10: 40617p1.2.H1 (scFv, V domains shown)
VH: EVQLLESGGGLVQPGGSLRLSCAASGFTFTNYWMTWVRQAPGKGLEWVSAISSYGGNYMYYADSVKGRFTISRDNSENTLYLQMNSLRAEDTAVYYCAKDWDDGMDVWGQGTTVTVSS
VL: EIVMTQSPAVLSVSPGERATLSCRASQTVGSKLAWYQQKPGQAPRLLIYGVSTRAAGIPDRFSGSGSGTDFTLTISSLQSEDFAVYYCQQYYDLPPYSFGGGTKVEIK
- Kd [1]: 73 nM
- Kd [2]: 9.71 nM
- Kd [3]: 33.8 nM

B12: 40769p2.2.A5 scFv-Fc (scFv, V domains shown)
VH: EVQLLESGGGLIQPGGSLRLSCTASGFDFSSYGMHWVRQAPGKGLEWVGIISDTGGTTYYGDSVKGRFTISRDNSKSTLYLQMNSLRAEDTALYYCASYIMDVWGQGTTVTVSS
VL: QSVLTQPPSASGTPGQRVTISCSGSNSNVGDNAVYWYQQLPGTAPKLLFYGTNRRPSGVPDRFSGSKSGTSASLAISGLQSEDEADYYCAAWDDSLNAWVFGGGTKLTVL
notes: scFv-Fc
- ELISA signal [4]: 1.27
- ELISA signal [5]: 1.76
- ELISA signal [6]: 1.6
- FACS percent gated [7]: 35.5%
- FACS percent gated [8]: 90.5%

B13: 40769p2.2.D3 scFv-Fc (scFv, V domains shown)
VH: B12 VH with T54S, G61A, S77N, T108I
VL: B12 VL with D31V, A33S, F49I, T52S, N53G, G65V, D94G, S95G
notes: scFv-Fc
- ELISA signal [5]: 1.48
- ELISA signal [6]: 1.34
- FACS percent gated [7]: 13.1%
- FACS percent gated [8]: 83.5%

B15: 40769p2.2.E12 scFv-Fc (scFv, V domains shown)
VH: B12 VH
VL: B12 VL with L40P
notes: scFv-Fc
- ELISA signal [4]: 1.26
- ELISA signal [5]: 1.67
- ELISA signal [6]: 1.59
- FACS percent gated [7]: 35.9%
- FACS percent gated [8]: 91.6%

B17: 40769p2.2.A6 scFv-Fc (scFv, V domains shown)
VH: EVQLLESGGGLVQPGGSLRLSCAASGFTFSDYEMNWVRQAPGKGLEWVSAISITGSWTYYADSVKGRFTISRDNSENTLYLQMNNLRAEDTAVYYCANYKSYYGMDVWGRGTTVTVSS
VL: QSVLTQPPSASGTPGQRVTISCSGSRSNIRNNLVNWYQQLPGTAPKLLIYNTQRPSGVPDRFSGSKSGTSASLAISGLQSEDEADYYCASWDASLNAWVFGGGTKLTVL
notes: scFv-Fc
- ELISA signal [4]: 0.043
- ELISA signal [5]: 1.75
- ELISA signal [6]: 1.62
- FACS percent gated [7]: 2.43%
- FACS percent gated [8]: 92.2%

B18: 40769p2.2.C11 scFv-Fc (scFv, V domains shown)
VH: B17 VH with A50S, E76K, R110H
VL: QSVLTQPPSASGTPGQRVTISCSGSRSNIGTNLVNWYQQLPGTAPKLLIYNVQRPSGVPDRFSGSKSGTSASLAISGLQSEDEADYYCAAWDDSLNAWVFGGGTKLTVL
notes: scFv-Fc
- ELISA signal [4]: 0.043
- ELISA signal [5]: 1.53
- ELISA signal [6]: 1.52
- FACS percent gated [7]: 1.26%
- FACS percent gated [8]: 92.8%

Next, values leading:

- Kd [1]: 3.33 nM
- Kd [2]: 36.1 nM
- Kd [3]: 149 nM
B1: 40617p1.2.B4 (scFv, V domains shown)
VH: EVQLLESGGGFVQPGGSLRLSCAASGFTFTNYVMNWVRQAPGKGLEWVSSISISGGRYTWYADSVKGRFTISRDNSRNTLYLQMNSLRAEDTAIYYCAREMNTYSFPMDVWGQGTTVTVSS
VL: EIVLTQSPGTLSLSPGERATLNCRASQNVRSDLAWYQQKPGQAPRLLIYDASNRATGIPDRFSGSGSGTDFSLTISRLEPEDFAVYYCQQYYDWPPYTFGGGTKVEIK

- Kd [1]: 501 nM
- Kd [2]: 29.6 nM
- Kd [3]: 6030 nM
B3: 40769p1.1.B10 (scFv, V domains shown)
VH: B2 VH with Q67R
VL: B2 VL

- Kd [1]: 930 nM
- Kd [2]: 26.4 nM
- Kd [3]: 147 nM
B5: 40596p1.E4 (scFv, V domains shown)
VH: B4 VH with K31G, N32S, S51L, F59Y, F68S, V70I, E76K, M83L, S84N, K98R
VL: B4 VL with F12S, T22S, I29V, F40P, A56T

- Kd [1]: 23.7 nM
- Kd [2]: 56.9 nM
- Kd [3]: 203 nM
B7: 40596p1.A5 (scFv, V domains shown)
VH: B4 VH with K31N, S84N
VL: B4 VL with F12S, T22R, T28S, F40P, R45S, S76T

- Kd [1]: 1660 nM
- Kd [2]: 2.49 nM
- Kd [3]: 24.3 nM
B8: 40769p1.2.B10 (scFv, V domains shown)
VH: EVQLLESGGGLVQPGGSLRLSCPASGFDFSSYWMTWVRQAPGKGLEWVSTITDSGGRAWYADSVRGRFTISRDNSKNTLYLQMNSLRAEDTAVYYCARDTPKTYYYYAMDVWGQGTTVTV
VL: QSALTQPPSASGTPGQRVTISCSGSSSNIQYSYVSWYQQLPGTAPKLLIYNNVQRPSGVPDRFSGSKSGTSASLAISGLQSEDEADYYCATWDESLLGLWVFGGGTKLTVL

- Kd [1]: 141 nM
- Kd [2]: 75.3 nM
- Kd [3]: 102 nM
B9: 40617p1.2.A1 (scFv, V domains shown)
VH: B10 VH with T30S, N31S, N57Q, M59T, E77K, N78D, Q83H, N85D
VL: B10 VL with T28S, G30N, S31I, V51A, E81D

- Kd [1]: 55 nM
- Kd [2]: 96.2 nM
- Kd [3]: 200 nM
B11: 40769p1.2.C9 (scFv, V domains shown)
VH: EVQLLESGGGLVQPGGSLRLSCAASGFTFSSHDMNWVRQAPGKGLEWVSTITTTGGTYYTDSVKGRFTISRDNSKNTIYLQMTSLRAEDTAVYYCTKHYSMDVWGQGTTVTVSS
VL: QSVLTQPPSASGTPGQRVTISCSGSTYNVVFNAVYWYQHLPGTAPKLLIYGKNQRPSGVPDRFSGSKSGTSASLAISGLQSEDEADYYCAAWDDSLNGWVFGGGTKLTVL

- Kd [1]: 249 nM
- Kd [2]: 91 nM
- Kd [3]: 582 nM
B14: 40769p1.1.B12 (scFv, V domains shown)
VH: B12 VH with T54S, G61A, S77N, L79M, T108I
VL: B12 VL with N26S, D31G, A33S, T52N, N53H, A91V

- ELISA signal [4]: 0.043
- ELISA signal [5]: 1.51
- ELISA signal [6]: 1.47
- FACS percent gated [7]: 2.87%
- FACS percent gated [8]: 92.6%
B16: 40769p2.2.D9 scFv-Fc (scFv, V domains shown)
VH: EVQLLESGGGLVQPGGSLRLSCAGSGFTFSDYWMSWVRQAPGKGLEWVSTISITAGIIYYADSVKGRFTISRDNSKNTLYLQMNSLRAEDTAVYYCAKDNWNDYYGMDVWGQGTTVTVSS
VL: QSVLTQPPSASGTPGQRVTVSCSGSRSNIRDNYVYWYQQVPGTAPKLLIYKDDQRPSGVPDRFSGSKSGTSASLVISGLQSEDEADYYCATWDGSLNARVFGGGTKLTVL
notes: scFv-Fc
